{"source": "patent US20170368208A1", "about": "“CANCER IMAGING AGENT” (ENDOCYTE, INC., priority 2015, published 2017)", "assay": "Radiochemical purity and stability of 99mTc-Compound II after room temperature labelling of kit formulations (radio-HPLC)", "assay_type": "physicochemical", "conditions": "0.1 mg tin chloride", "protocol": "A Compound II kit vial from Example 2 was removed from the refrigerator and allowed to warm to room temperature (17-27° C.) for 15-30 min. The vial was put into a suitable radioactive shielding container. One to Two milliliter (≦50 mCi) of ^99mTc pertechnetate injection was added to the vial using a lead shielded syringe. Before removing the syringe from the vial, equal volume of headspace was withdrawn in order to normalize the pressure inside the vial. The vial was gently swirled to completely dissolve the powder and then allowed to stand at ambient temperature (17-27° C.) for 15 minutes. 5-6 mL of 0.9% sodium chloride injection, USP, was then added to the vial. The labeled solution was stored at room temperature (17-27° C.) and used within 6 hours of preparation. The Radio-HPLC system used for the following experiment consisted of a Waters 600 intelligent pump, a Bioscan Flow-Count radiodetector, and a Waters Nova-Pak C18 (3.9×150 mm) column, using Laura v1.5 radiochromatogram software. 1-5 μL of the ^99mTc-Compound II sample was injected into the HPLC and eluted with an aqueous mobile phase 0.1% trifluoroacetic acid in water (A) and Acetonitrile (B) at a linear gradient of 25% B to 35% B over 20 minutes at a flow rate of 1 mL/min. […] The radiochemical purity of ^99mTc-Compound II was calculated as follows: Radiochemical purity=isomer A %+isomer B % (FIG. 1) Using the methods described herein, Compound II was subjected to room temperature labelling at varying pH. Using the methods described herein, Compound II was subjected to room temperature labelling with varying amounts of EDTA. Using the methods described herein, Compound II was subjected to room temperature labelling with varying amounts of sodium gluconate.", "note": "*1 amine or outer side, *2 acyl side, *3 side chain or, on linkers, in order; H or OH if unused. Where a SMILES comes first, the peptide text is derived from it. Side-chain parts run from the residue outwards. [ ]: non-standard residue; d: D form. ξ: configuration not given here. γGlu = O=C(O)[C@H](CCC(=O)[*:2])N[*:1]; ξE = NC(CCC(=O)O)C(=O)O; Dap = NC[C@H](N)C(=O)O; Aoc = NCCCCCCCC(=O)O; CO = O=C([*:1])[*:2]", "data": [{"smiles": "N[C@@H](CNC(=O)[C@H](Cc1ccccc1)NC(=O)[C@H](Cc1ccccc1)NC(=O)CCCCCCCNC(=O)CC[C@H](NC(=O)NC(CCC(=O)O)C(=O)O)C(=O)O)C(=O)N[C@@H](CC(=O)O)C(=O)N[C@@H](CS)C(=O)O", "note": "(stereo partly drawn) [EC0652] (H-[Dap]([Phe-Phe-Aoc-γGlu-CO-ξE])-Asp-Cys-OH)", "values": [{"measurement": "RCP (%) Time (6 Hr)", "setting": "kit 0.1 mg EC0652, 1 mg sodium gluconate, 0.3 mg EDTA, pH 6.8, 6 Hr", "value": 91.7, "unit": "%"}, {"measurement": "RCP (%) Time (6 Hr)", "setting": "kit 0.1 mg EC0652, 20 mg sodium gluconate, 0.3 mg EDTA, pH 6.8, 6 Hr", "value": 97.9, "unit": "%"}, {"measurement": "RCP (%) Time (0 Hr)", "setting": "kit 0.1 mg EC0652, 25 mg sodium gluconate, 0 mg EDTA, pH 6.8, 0 Hr", "value": 85.37, "unit": "%"}, {"measurement": "RCP (%) Time (6 Hr)", "setting": "kit 0.1 mg EC0652, 25 mg sodium gluconate, 0 mg EDTA, pH 6.8, 6 Hr", "value": 88.06, "unit": "%"}, {"measurement": "RCP (%) Time (0 Hr)", "setting": "kit 0.1 mg EC0652, 25 mg sodium gluconate, 0.005 mg EDTA, pH 6.8, 0 Hr", "value": 83.69, "unit": "%"}, {"measurement": "RCP (%) Time (6 Hr)", "setting": "kit 0.1 mg EC0652, 25 mg sodium gluconate, 0.005 mg EDTA, pH 6.8, 6 Hr", "value": 74.46, "unit": "%"}, {"measurement": "RCP (%) Time (0 Hr)", "setting": "kit 0.1 mg EC0652, 25 mg sodium gluconate, 0.01 mg EDTA, pH 6.8, 0 Hr", "value": 85.92, "unit": "%"}, {"measurement": "RCP (%) Time (6 Hr)", "setting": "kit 0.1 mg EC0652, 25 mg sodium gluconate, 0.01 mg EDTA, pH 6.8, 6 Hr", "value": 94.03, "unit": "%"}, {"measurement": "RCP (%) Time (0 Hr)", "setting": "kit 0.1 mg EC0652, 25 mg sodium gluconate, 0.1 mg EDTA, pH 6.8, 0 Hr", "value": 95.77, "unit": "%"}, {"measurement": "RCP (%) Time (6 Hr)", "setting": "kit 0.1 mg EC0652, 25 mg sodium gluconate, 0.1 mg EDTA, pH 6.8, 6 Hr", "value": 95.33, "unit": "%"}, {"measurement": "RCP (%) Time (0 Hr)", "setting": "kit 0.1 mg EC0652, 25 mg sodium gluconate, 0.30 mg EDTA, pH 6.8, 0 Hr (Table 5)", "value": 97.02, "unit": "%"}, {"measurement": "RCP (%) Time (6 Hr)", "setting": "kit 0.1 mg EC0652, 25 mg sodium gluconate, 0.30 mg EDTA, pH 6.8, 6 Hr (Table 5)", "value": 97.49, "unit": "%"}, {"measurement": "RCP (%) Time (6 Hr)", "setting": "kit 0.1 mg EC0652, 25 mg sodium gluconate, 0.3 mg EDTA, pH 6.8, 6 Hr (Table 6)", "value": 98.5, "unit": "%"}, {"measurement": "Radiochemical Purity (%) Time (0 Hr)", "setting": "kit 0.1 mg EC0652, 25 mg sodium gluconate, 0.3 mg EDTA, pH 5.1, 0 Hr after room temperature 99mTc labelling", "value": 97.7, "unit": "%"}, {"measurement": "Radiochemical Purity (%) Time (6 Hr)", "setting": "kit 0.1 mg EC0652, 25 mg sodium gluconate, 0.3 mg EDTA, pH 5.1, 6 Hr after room temperature 99mTc labelling", "value": 85.5, "unit": "%"}, {"measurement": "Radiochemical Purity (%) Time (0 Hr)", "setting": "kit 0.1 mg EC0652, 25 mg sodium gluconate, 0.3 mg EDTA, pH 6.2, 0 Hr", "value": 96.8, "unit": "%"}, {"measurement": "Radiochemical Purity (%) Time (6 Hr)", "setting": "kit 0.1 mg EC0652, 25 mg sodium gluconate, 0.3 mg EDTA, pH 6.2, 6 Hr", "value": 94.1, "unit": "%"}, {"measurement": "Radiochemical Purity (%) Time (0 Hr)", "setting": "kit 0.1 mg EC0652, 25 mg sodium gluconate, 0.3 mg EDTA, pH 6.8, 0 Hr (Table 3)", "value": 97.4, "unit": "%"}, {"measurement": "Radiochemical Purity (%) Time (6 Hr)", "setting": "kit 0.1 mg EC0652, 25 mg sodium gluconate, 0.3 mg EDTA, pH 6.8, 6 Hr (Table 3)", "value": 94.8, "unit": "%"}, {"measurement": "Radiochemical Purity (%) Time (0 Hr)", "setting": "kit 0.1 mg EC0652, 25 mg sodium gluconate, 0.3 mg EDTA, pH 7.4, 0 Hr", "value": 96.5, "unit": "%"}, {"measurement": "Radiochemical Purity (%) Time (6 Hr)", "setting": "kit 0.1 mg EC0652, 25 mg sodium gluconate, 0.3 mg EDTA, pH 7.4, 6 Hr", "value": 96.0, "unit": "%"}, {"measurement": "RCP (%) Time (0 Hr)", "setting": "kit 0.1 mg EC0652, 25 mg sodium gluconate, 1.0 mg EDTA, pH 6.8, 0 Hr", "value": 96.69, "unit": "%"}, {"measurement": "RCP (%) Time (6 Hr)", "setting": "kit 0.1 mg EC0652, 25 mg sodium gluconate, 1.0 mg EDTA, pH 6.8, 6 Hr", "value": 96.87, "unit": "%"}, {"measurement": "RCP (%) Time (6 Hr)", "setting": "kit 0.1 mg EC0652, 30 mg sodium gluconate, 0.3 mg EDTA, pH 6.8, 6 Hr", "value": 97.0, "unit": "%"}, {"measurement": "RCP (%) Time (6 Hr)", "setting": "kit 0.1 mg EC0652, 50 mg sodium gluconate, 0.3 mg EDTA, pH 6.8, 6 Hr", "value": 98.0, "unit": "%"}]}]}
